biological target: Fes (UniProt P07332); assay: phosphorylation enrichment, bacterial display (enrichment ratio); higher = better substrate or ligand; peptides without Tyr show the background
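Also: 11-residue human phosphosite peptides and single-mutation variants displayed on the E. coli surface, counted by deep sequencing, each peptide's frequency after selection divided by its frequency in the unselected input library; frequency after pTyr selection over input frequency; kinase dosed for 20-30% of maximal phosphorylation in three min.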

Sequence of Fes (P07332 whole entry, looked up): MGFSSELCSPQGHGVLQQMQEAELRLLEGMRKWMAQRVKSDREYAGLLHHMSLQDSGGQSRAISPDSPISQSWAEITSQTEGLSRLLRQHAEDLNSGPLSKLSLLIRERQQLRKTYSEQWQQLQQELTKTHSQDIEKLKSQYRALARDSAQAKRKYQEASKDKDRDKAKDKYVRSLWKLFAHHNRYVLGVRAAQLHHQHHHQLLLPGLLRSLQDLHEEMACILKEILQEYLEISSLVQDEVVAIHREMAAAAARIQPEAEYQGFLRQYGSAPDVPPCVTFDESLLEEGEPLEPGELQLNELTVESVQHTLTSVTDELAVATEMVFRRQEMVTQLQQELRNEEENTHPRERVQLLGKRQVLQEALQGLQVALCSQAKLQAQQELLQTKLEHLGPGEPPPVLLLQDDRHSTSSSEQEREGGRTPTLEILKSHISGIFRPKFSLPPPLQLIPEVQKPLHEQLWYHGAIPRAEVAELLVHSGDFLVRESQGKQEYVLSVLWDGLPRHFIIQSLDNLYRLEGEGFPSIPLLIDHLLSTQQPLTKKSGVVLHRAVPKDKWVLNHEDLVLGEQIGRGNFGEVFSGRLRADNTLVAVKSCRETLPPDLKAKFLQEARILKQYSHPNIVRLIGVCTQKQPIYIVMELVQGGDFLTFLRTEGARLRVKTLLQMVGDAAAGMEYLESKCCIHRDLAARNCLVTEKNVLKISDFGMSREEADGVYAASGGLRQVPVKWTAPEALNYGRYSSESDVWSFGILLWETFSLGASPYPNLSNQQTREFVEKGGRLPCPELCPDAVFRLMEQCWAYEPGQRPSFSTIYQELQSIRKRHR

| Sequence | phosphorylation enrichment |
| --- | --- |
| PATINYLFEKG [NDUFS8_Y84_P85L] | 0.891 |
| PSRKDYETYQP [CTNND2_Y1154] | 1.02 |
| AHLTEYLSTHY [UQCRC1_Y219_D215H] | 0.639 |
| YEEDSYVTRSQ [RET_Y905_K907T] | 1.12 |
| FKTPTYPFLLP [PLD2_Y578_YF] | 0.693 |
| SFLSFYTSHVQ [NEFL_Y443_P440L_YF] | 1.3 |
| EYDRLYEEYTR [PIK3R1_Y467] | 1.43 |
| RRIFSYRGHLW [VHL_Y112_H110Y_YF] | 0.897 |
| SSQHRYSTPHA [RAF1_Y232] | 0.53 |
| SWSTSYSGFRC [NKAPL_Y91_Y96C_YF] | 1.1 |
| LYEDHYLLGTS [ASS1_Y87_R86H] | 1.37 |
| PPKFFYTRKLL [CYBB_Y41] | 0.801 |
| KKKKQYKGKYL [CASK_Y708_D710G] | 0.582 |
| IGMFSYVMLAS [GGCX_Y301] | 1.56 |
| PADCRYFTFPQ [GAMT_Y222_A224T_YF] | 1.53 |
| LRAGVYPEKDQ [DNM2_Y626] | 0.971 |
| AAVDNYCRHNY [HLA-DRB1_Y107_T106N] | 0.808 |

| Sequence | phosphorylation enrichment |
| --- | --- |
| LTERGYSFVTT [ACTA1_Y200] | 1.41 |
| CTTIHYNYRCN [TP53_Y234_M237R] | 1.03 |
| HDHYGYRQSVT [CD55_Y245_R240H] | 1.06 |
| NKFTTYLPWLP [C9orf24_Y126_R129W_YF] | 1.06 |
| LLLLFCVVRFC [MPZ_Y177_Y177C_YF] | 1.12 |
| CTTIHYNYMSN [TP53_Y234_C238S] | 0.844 |
| AVLSLCASGRT [ACTA2_Y145_Y145C] | 0.955 |
| SIYKDYYRYNF [PLA2G2D_Y85] | 0.918 |
| NTQRPYFKGGG [TYROBP_Y111_YF] | 0.613 |
| ILTLKYPIERG [ACTA1_Y71_H75R] | 0.812 |
| LSAPCYLNRIS [HEXA_Y421_W420C] | 0.82 |
| MKNDLYQTPLH [NFKB1_Y582_R578K] | 0.695 |
| SGAWSYNTSTE [SELE_Y24] | 0.748 |
| KDQGTYEDYVE [MYL6_Y86] | 1.23 |
| FFHCTYKKRMI [CLEC12A_Y242_YF] | 1.06 |
| GIFKDYFRFNF [PLA2G2D_Y85_S80G_YF] | 1.18 |

system: c-Src; assay: as above

| Sequence | phosphorylation enrichment |
| --- | --- |
| PATINYLFEKG [NDUFS8_Y84_P85L] | 0.435 |
| PSRKDYETYQP [CTNND2_Y1154] | 0.62 |
| AHLTEYLSTHY [UQCRC1_Y219_D215H] | 0.453 |
| YEEDSYVTRSQ [RET_Y905_K907T] | 0.496 |
| FKTPTYPFLLP [PLD2_Y578_YF] | 0.552 |
| SFLSFYTSHVQ [NEFL_Y443_P440L_YF] | 0.462 |
| EYDRLYEEYTR [PIK3R1_Y467] | 5.99 |
| RRIFSYRGHLW [VHL_Y112_H110Y_YF] | 0.905 |
| SSQHRYSTPHA [RAF1_Y232] | 0.433 |
| SWSTSYSGFRC [NKAPL_Y91_Y96C_YF] | 0.972 |
| LYEDHYLLGTS [ASS1_Y87_R86H] | 2.73 |
| PPKFFYTRKLL [CYBB_Y41] | 0.439 |
| KKKKQYKGKYL [CASK_Y708_D710G] | 0.75 |
| IGMFSYVMLAS [GGCX_Y301] | 0.512 |
| PADCRYFTFPQ [GAMT_Y222_A224T_YF] | 2.58 |
| LRAGVYPEKDQ [DNM2_Y626] | 0.507 |
| AAVDNYCRHNY [HLA-DRB1_Y107_T106N] | 0.376 |

| Sequence | phosphorylation enrichment |
| --- | --- |
| LTERGYSFVTT [ACTA1_Y200] | 0.657 |
| CTTIHYNYRCN [TP53_Y234_M237R] | 0.522 |
| HDHYGYRQSVT [CD55_Y245_R240H] | 0.538 |
| NKFTTYLPWLP [C9orf24_Y126_R129W_YF] | 4.54 |
| LLLLFCVVRFC [MPZ_Y177_Y177C_YF] | 0.719 |
| CTTIHYNYMSN [TP53_Y234_C238S] | 0.399 |
| AVLSLCASGRT [ACTA2_Y145_Y145C] | 0.357 |
| SIYKDYYRYNF [PLA2G2D_Y85] | 4.42 |
| NTQRPYFKGGG [TYROBP_Y111_YF] | 0.461 |
| ILTLKYPIERG [ACTA1_Y71_H75R] | 0.479 |
| LSAPCYLNRIS [HEXA_Y421_W420C] | 0.422 |
| MKNDLYQTPLH [NFKB1_Y582_R578K] | 1.63 |
| SGAWSYNTSTE [SELE_Y24] | 0.378 |
| KDQGTYEDYVE [MYL6_Y86] | 0.768 |
| FFHCTYKKRMI [CLEC12A_Y242_YF] | 0.39 |
| GIFKDYFRFNF [PLA2G2D_Y85_S80G_YF] | 0.622 |

biological target: EPHB2 (UniProt P29323); assay: as above
Sequence (P29323 whole entry, looked up): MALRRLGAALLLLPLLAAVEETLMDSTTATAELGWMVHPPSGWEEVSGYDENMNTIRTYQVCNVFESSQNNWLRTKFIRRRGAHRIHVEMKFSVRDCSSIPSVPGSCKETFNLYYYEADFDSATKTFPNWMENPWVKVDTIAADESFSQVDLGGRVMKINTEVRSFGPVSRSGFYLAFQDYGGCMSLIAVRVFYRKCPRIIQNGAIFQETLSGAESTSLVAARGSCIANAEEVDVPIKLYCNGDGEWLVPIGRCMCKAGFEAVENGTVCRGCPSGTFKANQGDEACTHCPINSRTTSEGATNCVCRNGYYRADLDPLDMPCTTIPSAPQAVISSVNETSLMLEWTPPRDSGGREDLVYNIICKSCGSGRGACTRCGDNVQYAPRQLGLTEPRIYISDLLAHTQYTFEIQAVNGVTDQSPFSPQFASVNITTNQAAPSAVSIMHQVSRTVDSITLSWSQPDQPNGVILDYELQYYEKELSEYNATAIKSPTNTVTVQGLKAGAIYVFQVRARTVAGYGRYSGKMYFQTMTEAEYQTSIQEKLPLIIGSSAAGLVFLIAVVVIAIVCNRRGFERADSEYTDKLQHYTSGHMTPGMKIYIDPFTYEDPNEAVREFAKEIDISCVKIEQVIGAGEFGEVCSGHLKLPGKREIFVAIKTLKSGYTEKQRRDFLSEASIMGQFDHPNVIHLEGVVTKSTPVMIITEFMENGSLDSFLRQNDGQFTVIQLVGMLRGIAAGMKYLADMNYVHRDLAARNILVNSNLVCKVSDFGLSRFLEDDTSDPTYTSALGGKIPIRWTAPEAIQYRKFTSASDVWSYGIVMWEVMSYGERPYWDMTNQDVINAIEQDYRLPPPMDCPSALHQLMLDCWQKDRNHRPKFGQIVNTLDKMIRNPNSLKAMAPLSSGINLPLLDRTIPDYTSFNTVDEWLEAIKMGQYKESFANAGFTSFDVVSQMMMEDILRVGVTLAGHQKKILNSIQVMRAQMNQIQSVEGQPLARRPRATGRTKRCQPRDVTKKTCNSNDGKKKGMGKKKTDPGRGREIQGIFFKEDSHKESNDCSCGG

| Sequence | phosphorylation enrichment |
| --- | --- |
| PATINYLFEKG [NDUFS8_Y84_P85L] | 0.529 |
| PSRKDYETYQP [CTNND2_Y1154] | 2.62 |
| AHLTEYLSTHY [UQCRC1_Y219_D215H] | 0.396 |
| YEEDSYVTRSQ [RET_Y905_K907T] | 0.565 |
| FKTPTYPFLLP [PLD2_Y578_YF] | 0.422 |
| SFLSFYTSHVQ [NEFL_Y443_P440L_YF] | 0.697 |
| EYDRLYEEYTR [PIK3R1_Y467] | 7 |
| RRIFSYRGHLW [VHL_Y112_H110Y_YF] | 0.541 |
| SSQHRYSTPHA [RAF1_Y232] | 0.354 |
| SWSTSYSGFRC [NKAPL_Y91_Y96C_YF] | 0.597 |
| LYEDHYLLGTS [ASS1_Y87_R86H] | 3.05 |
| PPKFFYTRKLL [CYBB_Y41] | 0.683 |
| KKKKQYKGKYL [CASK_Y708_D710G] | 0.54 |
| IGMFSYVMLAS [GGCX_Y301] | 0.611 |
| PADCRYFTFPQ [GAMT_Y222_A224T_YF] | 0.483 |
| LRAGVYPEKDQ [DNM2_Y626] | 0.498 |
| AAVDNYCRHNY [HLA-DRB1_Y107_T106N] | 0.669 |

| Sequence | phosphorylation enrichment |
| --- | --- |
| LTERGYSFVTT [ACTA1_Y200] | 0.95 |
| CTTIHYNYRCN [TP53_Y234_M237R] | 0.54 |
| HDHYGYRQSVT [CD55_Y245_R240H] | 0.713 |
| NKFTTYLPWLP [C9orf24_Y126_R129W_YF] | 6.61 |
| LLLLFCVVRFC [MPZ_Y177_Y177C_YF] | 0.56 |
| CTTIHYNYMSN [TP53_Y234_C238S] | 0.594 |
| AVLSLCASGRT [ACTA2_Y145_Y145C] | 0.639 |
| SIYKDYYRYNF [PLA2G2D_Y85] | 5.61 |
| NTQRPYFKGGG [TYROBP_Y111_YF] | 0.372 |
| ILTLKYPIERG [ACTA1_Y71_H75R] | 0.663 |
| LSAPCYLNRIS [HEXA_Y421_W420C] | 0.552 |
| MKNDLYQTPLH [NFKB1_Y582_R578K] | 1.11 |
| SGAWSYNTSTE [SELE_Y24] | 0.502 |
| KDQGTYEDYVE [MYL6_Y86] | 0.576 |
| FFHCTYKKRMI [CLEC12A_Y242_YF] | 0.612 |
| GIFKDYFRFNF [PLA2G2D_Y85_S80G_YF] | 0.47 |

system: Fer (mouse); assay: as above

| Sequence | phosphorylation enrichment |
| --- | --- |
| PATINYLFEKG [NDUFS8_Y84_P85L] | 0.43 |
| PSRKDYETYQP [CTNND2_Y1154] | 0.485 |
| AHLTEYLSTHY [UQCRC1_Y219_D215H] | 0.371 |
| YEEDSYVTRSQ [RET_Y905_K907T] | 0.548 |
| FKTPTYPFLLP [PLD2_Y578_YF] | 0.362 |
| SFLSFYTSHVQ [NEFL_Y443_P440L_YF] | 0.503 |
| EYDRLYEEYTR [PIK3R1_Y467] | 6.02 |
| RRIFSYRGHLW [VHL_Y112_H110Y_YF] | 0.536 |
| SSQHRYSTPHA [RAF1_Y232] | 0.365 |
| SWSTSYSGFRC [NKAPL_Y91_Y96C_YF] | 0.531 |
| LYEDHYLLGTS [ASS1_Y87_R86H] | 16.1 |
| PPKFFYTRKLL [CYBB_Y41] | 0.513 |
| KKKKQYKGKYL [CASK_Y708_D710G] | 0.444 |
| IGMFSYVMLAS [GGCX_Y301] | 0.562 |
| PADCRYFTFPQ [GAMT_Y222_A224T_YF] | 0.68 |
| LRAGVYPEKDQ [DNM2_Y626] | 0.39 |
| AAVDNYCRHNY [HLA-DRB1_Y107_T106N] | 0.427 |

| Sequence | phosphorylation enrichment |
| --- | --- |
| LTERGYSFVTT [ACTA1_Y200] | 0.823 |
| CTTIHYNYRCN [TP53_Y234_M237R] | 0.455 |
| HDHYGYRQSVT [CD55_Y245_R240H] | 0.743 |
| NKFTTYLPWLP [C9orf24_Y126_R129W_YF] | 6.84 |
| LLLLFCVVRFC [MPZ_Y177_Y177C_YF] | 1.16 |
| CTTIHYNYMSN [TP53_Y234_C238S] | 0.664 |
| AVLSLCASGRT [ACTA2_Y145_Y145C] | 0.545 |
| SIYKDYYRYNF [PLA2G2D_Y85] | 1.32 |
| NTQRPYFKGGG [TYROBP_Y111_YF] | 0.437 |
| ILTLKYPIERG [ACTA1_Y71_H75R] | 0.407 |
| LSAPCYLNRIS [HEXA_Y421_W420C] | 0.424 |
| MKNDLYQTPLH [NFKB1_Y582_R578K] | 2.2 |
| SGAWSYNTSTE [SELE_Y24] | 0.382 |
| KDQGTYEDYVE [MYL6_Y86] | 0.56 |
| FFHCTYKKRMI [CLEC12A_Y242_YF] | 0.39 |
| GIFKDYFRFNF [PLA2G2D_Y85_S80G_YF] | 0.507 |
